Data reported in patent US20110190477A1 (G2 INFLAMMATION, published 2011).
Where “and” joins values, the source holds several entries; their conditions need not be identical. Identical values can stand only once. No end group written: not given here. *: point of attachment. Biotin = O=C1N[C@H]2[C@H](CS[C@H]2CCCCC(=O)*)N1

T1: peptide A9 (… with Ala at position 5, Y3 of the epitope) (human)
T1 construct: The label A9 and position 5 follow from 'Peptides A2-A13 contained a single alanine substitution at each amino acid position from 12 to 1 respectively'
T1 peptide: Biotin-SGSGVREEAFPPKVLC

T2: peptide 4 (12 mer from the 2nd extracellular loop of human C5aR) (human)
T2 construct: worked out from 22 12 mers offset by one over 173-205; also called peptide no
T2 peptide: Biotin-SGSGVVREEYFPPKVL

T3: peptide 1 (12 mer from the 2nd extracellular loop of human C5aR) (human, not fully specified)
T3 construct: worked out from 22 12 mers offset by one over 173-205; also called peptide no
T3 peptide: Biotin-SGSGLYRVVREEYFPP

T4: peptide 7 (12 mer from the 2nd extracellular loop of human C5aR) (human)
T4 construct: worked out from 22 12 mers offset by one over 173-205; also called peptide no
T4 peptide: Biotin-SGSGEEYFPPKVLCGV

T5: peptide 3 (12 mer from the 2nd extracellular loop of human C5aR) (human)
T5 construct: worked out from 22 12 mers offset by one over 173-205; also called peptide no
T5 peptide: Biotin-SGSGRVVREEYFPPKV

T6: peptide 5 (12 mer from the 2nd extracellular loop of human C5aR) (human)
T6 construct: worked out from 22 12 mers offset by one over 173-205; also called peptide no
T6 peptide: Biotin-SGSGVREEYFPPKVLC

T7: peptide 2 (12 mer from the 2nd extracellular loop of human C5aR) (human)
T7 construct: worked out from 22 12 mers offset by one over 173-205; also called peptide no
T7 peptide: Biotin-SGSGYRVVREEYFPPK

T8: peptide 6 (12 mer from the 2nd extracellular loop of human C5aR) (human)
T8 construct: worked out from 22 12 mers offset by one over 173-205; also called peptide no
T8 peptide: Biotin-SGSGREEYFPPKVLCG

T9: human C5a receptor (human, UniProt P21730 1-350)
T9 construct: On human neutrophils, L1.2/hC5aR transfectants or neutrophils of hC5aR knock-in mice; also called hC5aR; C5aR1
T9 chain: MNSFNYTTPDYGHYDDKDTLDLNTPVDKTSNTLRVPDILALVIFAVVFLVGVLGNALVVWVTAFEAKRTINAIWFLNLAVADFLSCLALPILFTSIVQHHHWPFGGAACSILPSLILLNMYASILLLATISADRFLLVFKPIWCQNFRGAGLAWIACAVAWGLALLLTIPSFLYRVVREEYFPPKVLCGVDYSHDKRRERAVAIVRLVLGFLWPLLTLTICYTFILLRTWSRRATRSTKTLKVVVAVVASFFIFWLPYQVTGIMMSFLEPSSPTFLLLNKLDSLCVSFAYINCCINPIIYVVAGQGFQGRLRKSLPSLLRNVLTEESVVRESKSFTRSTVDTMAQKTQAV


Columns and labels:
[1] = biological target: T1, peptide A9 (… with Ala at position 5, …); experiment: peptide ELISA, alanine-scan peptides
Method: (§1) A 384 well streptavidin-coated plate (Nunc) was blocked with 20 μl of blocking buffer (1% w/v BSA in PBS) per well. The plate was washed 4 times with PBS/Tween20 buffer (0.1% v/v Tween 20 in PBS). 20 μl of diluted peptide solution was transferred into a well and the plate incubated for 1 hour at room temperature. After washing the plate 4 times (as above) 20 μl antibody (0.5, 1, 1.25, 2.5 or 5 μg/ml) was added to the well and the plate was incubated for 1 hour at 20° C. The plate was washed 4 times as above then 20 μlHRP-conjugated anti-mouse IgG (1:5000 dilution in PBS/Tween 20) was added to each well. After a 1 hour incubation at room temperature the plate was washed 3 times (as above) then twice with PBS to remove traces of Tween. The presence of peroxidase was detected by adding 20 μl of freshly prepared TMB Substrate reagent (BD Opt EIA) to each well and incubating at room temperature for 20 min. Finally the plate was read at 650 nm/450 nm.
Peptide A1 had no A1a substitution and peptide A14 was a scrambled version of peptide A1. Peptides A2-A13 contained a single alanine substitution at each amino acid position from 12 to 1 respectively. Binding of antibodies to the peptides coated on ELISA plates was carried out as described above.

[2] = biological target: T2, peptide 4 (12 mer from the 2nd …); experiment: peptide ELISA, biotin peptide on streptavidin plate
Description: (§2) A set of 22 overlapping peptides (12 mers), each offset by 1 residue from the next, spanning the second extracellular loop (3rd extracellular domain) of human C5aR was synthesised (Mimotopes, Melbourne). Each peptide was made with a biotin group and 4-amino acid linker (SGSG) at its N-terminus. One peptide synthesised, no. 23, was a 33 mer, representing the full length of the 2nd extracellular loop of hC5aR (residues 173-205 from SEQ ID NO:37), also had biotin-SGSG at the N-terminus.
(§3) The experiment was conducted by binding the peptides to a 384-well streptavidin-coated plate then incubating the antibodies with the peptides and detecting bound antibody with an anti-mouse IgG conjugated to horse radish peroxidase (HRP) as follows. Each peptide was dissolved in 200 μl of 60% DMSO to a concentration of 10 mg/ml. Peptides were further diluted 1:1000 to a working strength of 10 μg/ml with PBS/Tween 20/azide solution (0.1% w/v sodium azide in PBS/0.05% Tween 20).
as §1

[3] = biological target: T3, peptide 1 (12 mer from the 2nd …); experiment: as above
Description: as §2, §3, §1

[4] = biological target: T4, peptide 7 (12 mer from the 2nd …); experiment: as above
Description: as §2, §3, §1

[5] = biological target: T5, peptide 3 (12 mer from the 2nd …); experiment: as above
Description: as §2, §3, §1

[6] = biological target: T6, peptide 5 (12 mer from the 2nd …); experiment: as above
Description: as §2, §3, §1

[7] = biological target: T7, peptide 2 (12 mer from the 2nd …); experiment: as above
Description: as §2, §3, §1

[8] = biological target: T8, peptide 6 (12 mer from the 2nd …); experiment: as above
Description: as §2, §3, §1

human C5a receptor = biological target: T9, human C5a receptor; experiment: saturation binding to human neutrophils at 4 C, flow cytometry
Method: Human neutrophils, isolated as described above, were resuspended in dPBS and 1×10⁵ cells (in 25 μl) were dispensed into wells of a 96-well plate. An equal volume (25 μl) of 2× antibody (diluted in PBS) was added to each well. The final antibody concentration using 2-fold serial dilution ranged from 40 to 0 ug/ml (using unlabelled hAb-Q, hAb-J and 7F3). Cells and antibody were incubated for 20 min times at 4° C. After incubation, 100 μl PBS+1% BCS was added to each well and the plate centrifuged at 2,000 rpm for 3 min. […] The cells were washed once as above and resuspended in PBS+1% FCS for analysis by flow cytometry. FSC v SSC scatter was used to identify neutrophils, with the Median Fluorescence Intensity (MFI) determined for each sample. EC50 values were determined by fitting data (MFI—background vs log₁₀[antibody concentration]) to the sigmoidal dose-response (variable slope) i.e. 4-parameter logistic equation using GraphPad Prism (v4.0) software. Bₘₐₓ and KD were determined by fitting data to the one-site binding hyperbola equation.

Row | Binder | binding result [1] | binding result [2] | binding result [3] | binding result [4] | binding result [5] | binding result [6] | binding result [7] | binding result [8] | EC50 (human C5a receptor) | Kd (human C5a receptor)
1 | humanized anti-C5aR antibody hAb-J (antibody, human IgG4 S228P, kappa, also called antibody J) light: DVVMTQSPLSLPVTLGEPASISCRSSQSLVHSNGNTYLHWYLQKPGQSPQLLIYKVSNRFSGVPDRFSGSGSGTDFTLKISRVEAEDVGVYFCSQSTLVPLTFGQGTKLEIKTVAAPSVFIFPPSDEQLKSGTASVVCLLNNFYPREAKVQWKVDNALQSGNSQESVTEQDSKDSTYSLSSTLTLSKADYEKHKVYACEVTHQGLSSPVTKSFNRGEC heavy: not shown | no binding |  |  |  |  |  |  |  |  | 
2 | humanized anti-C5aR antibody hAb-Q (antibody, human IgG4 S228P, kappa, IgG4 with the Ser228Pro mutation; also called antibody Q; anti-C5aR ab) light: DVVMTQSPLSLPVTLGEPASISCRSSQSLVHSNGNTYLHWYLQKPGQSPQLLIYKVSNRFSGVPDRFSGSGSGTDFTLKISRVEAEDVGVYFCSQSTLVPLTFGQGTKLEIKRTVAAPSVFIFPPSDEQLKSGTASVVCLLNNFYPREAKVQWKVDNALQSGNSQESVTEQDSKDSTYSLSSTLTLSKADYEKHKVYACEVTHQGLSSPVTKSFNRGEC heavy: not shown | no binding | binds | binds | binds | binds | binds | binds | binds | 20 nM to 25 nM (2×) and ~3 µg/mL | 20 nM to 25 nM (2×) and ~3 µg/mL
3 | mouse anti-C5aR monoclonal antibody 7F3 (antibody, V domains shown, Mouse monoclonal from hybridoma ECACC 00110609; also called m7F3; mouse 7F3) VH: QVQLQQSGPELVKPGASVKISCKASGYAFSNSWMNWVKQRPGKGLEWIGRIYPGDGDTKYNGKFKGKATLTADKSSSTAYMQLSSLTSEDSAVYFCARFLLISTVTAVDYWGQGTTLTVSS VL: DVVMTQSPLSLPVSLGNQASISCRSSQSLVHSNGNTYLHWYLQKPGQSPKLLIYKVSNRFSGVPDRFSGSGSGTDFSLKISRVEAEDLGVYFCSQSTLVPLTFGAGTKLELK |  | binds | binds | binds | binds | binds | binds | binds | 8 to 10 nM | 8 to 10 nM
